Results reported in US20260008815A1, “CYCLIC PEPTIDE OR SALT THEREOF, AND USES THEREOF” (FUJIFILM Corporation, priority 2023, published 2026).
Numbered stars: 1 amine (or outer) side, 2 acyl side, 3 side chain; on linkers, the order of the positions; unused ones are H or OH. Bridge positions count the residues as written; N and C are the ends. Ends that are not written are not given here. acetyl = acetyl (haloacetyl before ring closure) on the side-chain amine, O=C(C[*:1])[*:2]; COCH2 = acetyl group that carries the bridge

target: T1, Recombinant Human FGFR2 alpha (IIIc) Fc Chimera Protein (Homo sapiens, UniProt P21802); experiment: ELISA binding affinity of enzymatically synthesized peptide to FGFR; conditions: ELISA luminescence signal at 10 nmol/L peptide, SEQ ID NO: 47 at 10 nmol/L standardized to 1; enzyme synthesis product
T1 construct: Fc (chimera); purchased R&D systems 712-FR-050
Protocol: The binding affinity of the peptide to FGFR was evaluated using an ELISA method.
The binding affinity of the enzymatically synthesized peptide to FGFR was measured by evaluating the amount of the peptide bound to FGFR by ELISA.
First, 5 ng of Recombinant Human FGFR2 alpha (IIIc) Fc Chimera Protein (R&D systems, 712-FR-050) was immobilized in each well of a 96-well plate, and blocked with Pierce Protein-Free (PBS) Blocking Buffer (Thermo, 37572), and a peptide diluted with Can Get Signal Immunoreaction Enhancer Solution I (TOYOBO, NKB-101) was then added and reacted at room temperature for 3 hours. After washing with 0.05% Tween 20-containing phosphate buffered saline (PBS), an anti-Myc antibody (Cell Signaling, 14038S) diluted with Can Get Signal Immunoreaction Enhancer Solution II (TOYOBO, NKB-101) was added and reacted at room temperature for 2 hours. After washing with 0.05% Tween 20-containing PBS, SuperSignal ELISA Femto Substrate (Thermo, 37075) was added, and the luminescence amount was measured. The dose-response relationship was calculated from using the difference between the luminescence amount in the well in which FGFR was immobilized and the luminescence amount in the well in which FGFR was not immobilized, and the concentration of the peptide at the time of reaction, and the binding affinity to FGFR was evaluated according to the following evaluation criteria. The evaluation result preferably satisfies the evaluation criteria A, B, or C.
In a case where a value of a luminescence signal emitted by the cyclic peptide set forth in SEQ ID NO: 47 at a reaction concentration of 10 nmol/L is standardized to 1, evaluation criteria of the luminescence signal value emitted by the cyclic peptide at a reaction concentration of 10 nmol/L is as follows. • A: 0.7 or more • B: 0.5 or more and less than 0.7 • C: 0.1 or more and less than 0.5 • D: less than 0.1.

T1 sequence (P21802 with tags, fused parts or gaps limits assumed): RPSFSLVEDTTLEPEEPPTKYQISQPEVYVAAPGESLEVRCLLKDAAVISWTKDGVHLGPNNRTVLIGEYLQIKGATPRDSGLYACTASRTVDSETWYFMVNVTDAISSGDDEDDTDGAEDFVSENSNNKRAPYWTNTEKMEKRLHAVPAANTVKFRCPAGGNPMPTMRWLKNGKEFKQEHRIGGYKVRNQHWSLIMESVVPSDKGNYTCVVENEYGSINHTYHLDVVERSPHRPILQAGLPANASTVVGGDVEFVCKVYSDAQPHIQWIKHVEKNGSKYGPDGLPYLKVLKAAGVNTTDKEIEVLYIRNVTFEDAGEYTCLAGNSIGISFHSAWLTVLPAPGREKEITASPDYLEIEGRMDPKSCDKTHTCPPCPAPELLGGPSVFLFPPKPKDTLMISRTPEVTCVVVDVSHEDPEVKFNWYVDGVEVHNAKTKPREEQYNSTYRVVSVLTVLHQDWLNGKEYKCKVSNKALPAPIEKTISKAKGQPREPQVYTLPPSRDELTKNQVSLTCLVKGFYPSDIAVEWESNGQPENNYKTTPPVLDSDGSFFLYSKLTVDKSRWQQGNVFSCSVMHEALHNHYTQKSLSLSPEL

Question: Which “Evaluation result of binding affinity to FGFR” value (shortened to “Evaluation result”) does the source give for “170 (YCEVNYLDPEQYQYFIYFK(COCH2)Y; thioether 2-19 (inferred)) [compound 170]” here?
Answer: A (0.7 or more)

Question: “105 (QCPQNFINPVQSRYFQHYK(COCH2)N; thioether 2-19 (inferred)) [compound 105]” was tested. Which “Evaluation result” value did it give?
Answer: C (0.1 or more and less than 0.5)

Question: With “151 (YCGENYLDPEQYQYFIYFK(COCH2)Y; thioether 2-19 (inferred)) [compound 151]” as the substance, how does the “Evaluation result” value read?
Answer: A (0.7 or more)

Question: With “367 (HCQLEYLYTYVLK(COCH2)I; thioether 2-13) [compound 367]” as the substance, how does the “Evaluation result” value read?
Answer: C (0.1 or more and less than 0.5)

Question: With “65 (KCPQNFINPVQWRYFAHYK(COCH2)N; thioether 2-19 (inferred)) [compound 65]” as the substance, how does the “Evaluation result” value read?
Answer: A (0.7 or more)

Question: With “131 (YCEENYLDPEQYQYFIYFK(COCH2)Y; thioether 2-19 (inferred)) [compound 131]” as the substance, how does the “Evaluation result” value read?
Answer: A (0.7 or more)

Question: With “113 (RCINYWSGQQFYFFQQYK(COCH2)F; thioether 2-18 (inferred)) [compound 113]” as the substance, how does the “Evaluation result” value read?
Answer: C (0.1 or more and less than 0.5)

Question: How did the “Evaluation result” value turn out when “183 (YCEEQYLDPEQYQYFIYFK(COCH2)Y; thioether 2-19 (inferred)) [compound 183]” was run?
Answer: C (0.1 or more and less than 0.5)

Question: How did the “Evaluation result” value turn out when “291 (YCEENYLDPEQYQYFIGFK(COCH2)Y; thioether 2-19) [compound 291]” was run?
Answer: B (0.5 or more and less than 0.7)

Question: Which “Evaluation result” value does the source give for “112 (HCQPEYELYYIYLYLNALK(COCH2)I; thioether 2-19 (inferred)) [compound 112]” here?
Answer: C (0.1 or more and less than 0.5)

Question: For “294 (YCEENYLDPEQYQYFIIFK(COCH2)Y; thioether 2-19) [compound 294]”, which “Evaluation result” value is on record?
Answer: B (0.5 or more and less than 0.7)

Question: For “299 (YCEENYLDPEQYQYFIQFK(COCH2)Y; thioether 2-19) [compound 299]”, which “Evaluation result” value is on record?
Answer: A (0.7 or more)

Question: For “76 (FCPQNFINPVQWRYFQHYK(COCH2)N; thioether 2-19 (inferred)) [compound 76]”, which “Evaluation result” value is on record?
Answer: A (0.7 or more)

Question: “146 (TCEENYLDPEQYQYFIYFKY; Description of Artificial Sequence: Cyclic peptide) [compound 146]” was tested. Which “Evaluation result” value did it give?
Answer: A (0.7 or more)

Question: “256 (YCEENYLDPEQHQYFIYFK(COCH2)Y; thioether 2-19 (inferred)) [compound 256]” was tested. Which “Evaluation result” value did it give?
Answer: A (0.7 or more)

Question: Which “Evaluation result” value does the source give for “191 (YCEENSLDPEQYQYFIYFK(COCH2)Y; thioether 2-19 (inferred)) [compound 191]” here?
Answer: C (0.1 or more and less than 0.5)

Question: Which “Evaluation result” value does the source give for “95 (QCPQGFINPVQWRYFQHYK(COCH2)N; thioether 2-19) [compound 95]” here?
Answer: C (0.1 or more and less than 0.5)

Question: “243 (YCEENYLDPWQYQYFIYFK(COCH2)Y; thioether 2-19 (inferred)) [compound 243]” was tested. Which “Evaluation result” value did it give?
Answer: A (0.7 or more)

Question: For “418 (DCLRQQVYQYLYILFQNDIAK(COCH2)D; thioether 2-21 via acetyl) [compound 418]”, which “Evaluation result” value is on record?
Answer: C (0.1 or more and less than 0.5)

Question: With “120 (QCWYIQQYIWERYFLWHNK(COCH2)E; thioether 2-19 (inferred)) [compound 120]” as the substance, how does the “Evaluation result” value read?
Answer: C (0.1 or more and less than 0.5)

Question: Which “Evaluation result” value does the source give for “121 (DCYWDDQQYSFLQLYK(COCH2)R; thioether 2-16 (inferred)) [compound 121]” here?
Answer: A (0.7 or more)

Question: How did the “Evaluation result” value turn out when “81 (SCPQNFINPVQWRYFQHYK(COCH2)N; thioether 2-19 (inferred)) [compound 81]” was run?
Answer: A (0.7 or more)

Question: With “415 (YCDWVEVANARQLAYYTLYRKK; Description of Artificial Sequence: Cyclic peptide) [compound 415]” as the substance, how does the “Evaluation result” value read?
Answer: C (0.1 or more and less than 0.5)

Question: How did the “Evaluation result” value turn out when “236 (YCEENYLDPGQYQYFIYFK(COCH2)Y; thioether 2-19 (inferred)) [compound 236]” was run?
Answer: C (0.1 or more and less than 0.5)

Question: With “67 (KCPQNFINPVQWRYFQHYKA; not fully specified; also: cyclic peptide, ring places not shown) [compound 67]” as the substance, how does the “Evaluation result” value read?
Answer: A (0.7 or more)

Question: With “348 (YCMENYLDPEQYQYFIYFK(COCH2)Y; thioether 2-19) [compound 348]” as the substance, how does the “Evaluation result” value read?
Answer: A (0.7 or more)

Question: How did the “Evaluation result” value turn out when “276 (YCEENYLDPEQYQYYIYFK(COCH2)Y; thioether 2-19) [compound 276]” was run?
Answer: B (0.5 or more and less than 0.7)

Question: “136 (GCEENYLDPEQYQYFIYFK(COCH2)Y; thioether 2-19 (inferred)) [compound 136]” was tested. Which “Evaluation result” value did it give?
Answer: A (0.7 or more)

Question: How did the “Evaluation result” value turn out when “260 (YCEENYLDPEQYVYFIYFK(COCH2)Y; thioether 2-19) [compound 260]” was run?
Answer: A (0.7 or more)

Question: “309 (YCEENYLDPEQYQYFIYFK(COCH2)L; thioether 2-19 (inferred)) [compound 309]” was tested. Which “Evaluation result” value did it give?
Answer: A (0.7 or more)

Question: For “258 (YCEENYLDPEQYLYFIYFK(COCH2)Y; thioether 2-19 (inferred)) [compound 258]”, which “Evaluation result” value is on record?
Answer: A (0.7 or more)

Question: With “160 (YCQENYLDPEQYQYFIYFK(COCH2)Y; thioether 2-19 (inferred)) [compound 160]” as the substance, how does the “Evaluation result” value read?
Answer: A (0.7 or more)

Question: How did the “Evaluation result” value turn out when “111 (QCDQEFYLALYAWTLRSYK(COCH2)L; thioether 2-19 (inferred)) [compound 111]” was run?
Answer: C (0.1 or more and less than 0.5)

Question: Which “Evaluation result” value does the source give for “143 (NCEENYLDPEQYQYFIYFKY; Description of Artificial Sequence: Cyclic peptide) [compound 143]” here?
Answer: A (0.7 or more)

Question: With “107 (YCTDNYIDDIQFWYLFLYK(COCH2)Q; thioether 2-19 (inferred)) [compound 107]” as the substance, how does the “Evaluation result” value read?
Answer: B (0.5 or more and less than 0.7)

Question: Which “Evaluation result” value does the source give for “280 (YCEENYLDPEQYQYFFYFK(COCH2)Y; thioether 2-19) [compound 280]” here?
Answer: A (0.7 or more)

Question: Which “Evaluation result” value does the source give for “229 (YCEENYLDQEQYQYFIYFK(COCH2)Y; thioether 2-19 (inferred)) [compound 229]” here?
Answer: A (0.7 or more)

Question: How did the “Evaluation result” value turn out when “190 (YCEENQLDPEQYQYFIYFK(COCH2)Y; thioether 2-19 (inferred)) [compound 190]” was run?
Answer: C (0.1 or more and less than 0.5)

Question: For “317 (YCEENYLDPEQYQYFIYFK(COCH2)T; thioether 2-19 (inferred)) [compound 317]”, which “Evaluation result” value is on record?
Answer: A (0.7 or more)

Question: With “404 (DCIRPYDQLQLIYQYLYQLK(COCH2)K; thioether 2-20 (inferred)) [compound 404]” as the substance, how does the “Evaluation result” value read?
Answer: C (0.1 or more and less than 0.5)

Question: How did the “Evaluation result” value turn out when “297 (YCEENYLDPEQYQYFIWFK(COCH2)Y; thioether 2-19) [compound 297]” was run?
Answer: A (0.7 or more)

Question: For “158 (YCWENYLDPEQYQYFIYFK(COCH2)Y; thioether 2-19 (inferred)) [compound 158]”, which “Evaluation result” value is on record?
Answer: A (0.7 or more)

Question: With “172 (YCEYNYLDPEQYQYFIYFK(COCH2)Y; thioether 2-19 (inferred)) [compound 172]” as the substance, how does the “Evaluation result” value read?
Answer: A (0.7 or more)

Question: For “365 (LCYLYQYLYQAK(COCH2)F; thioether 2-12) [compound 365]”, which “Evaluation result” value is on record?
Answer: C (0.1 or more and less than 0.5)

Question: For “379 (NCQLYYTYLYLHTLK(COCH2)F; thioether 2-15 (inferred)) [compound 379]”, which “Evaluation result” value is on record?
Answer: C (0.1 or more and less than 0.5)

Question: For “321 (YCEENYLDPEQYQYFIYFK(COCH2)H; thioether 2-19 (inferred)) [compound 321]”, which “Evaluation result” value is on record?
Answer: A (0.7 or more)

Question: How did the “Evaluation result” value turn out when “416 (LCTQFPASQRYYFALYRLWHKS; Description of Artificial Sequence: Cyclic peptide) [compound 416]” was run?
Answer: C (0.1 or more and less than 0.5)

Question: “39 (QCENWLSQDQWKYFWQYK(COCH2)I; thioether 2-18 (inferred)) [compound 39]” was tested. Which “Evaluation result” value did it give?
Answer: A (0.7 or more)

Question: Which “Evaluation result” value does the source give for “362 (LCYLYQYLYTTK(COCH2)Y; thioether 2-12) [compound 362]” here?
Answer: C (0.1 or more and less than 0.5)

Question: With “316 (YCEENYLDPEQYQYFIYFK(COCH2)S; thioether 2-19 (inferred)) [compound 316]” as the substance, how does the “Evaluation result” value read?
Answer: A (0.7 or more)

Question: With “262 (YCEENYLDPEQYYYFIYFK(COCH2)Y; thioether 2-19) [compound 262]” as the substance, how does the “Evaluation result” value read?
Answer: A (0.7 or more)

Question: How did the “Evaluation result” value turn out when “369 (DCLQFLYLYLYQK(COCH2)T; thioether 2-13) [compound 369]” was run?
Answer: C (0.1 or more and less than 0.5)
